Data reported in US20080213273A1.

Assays:
[1] = target: human CD20 (on the human B-cell lymphoma cell line WIL2-S and other CD20+ human B-cell lines) (human) (UniProt P11836); test: cell-based or functional assay
[2] = target: monkey CD20 (on monkey peripheral blood cells) (monkey) (UniProt M4ZHZ6); test: flow cytometry on monkey peripheral blood, N = 3, mean (SD 3.3); control column 0.2 (0.1)
Sequence of UniProt M4ZHZ6 (M4ZHZ6 entry or part of it limits assumed): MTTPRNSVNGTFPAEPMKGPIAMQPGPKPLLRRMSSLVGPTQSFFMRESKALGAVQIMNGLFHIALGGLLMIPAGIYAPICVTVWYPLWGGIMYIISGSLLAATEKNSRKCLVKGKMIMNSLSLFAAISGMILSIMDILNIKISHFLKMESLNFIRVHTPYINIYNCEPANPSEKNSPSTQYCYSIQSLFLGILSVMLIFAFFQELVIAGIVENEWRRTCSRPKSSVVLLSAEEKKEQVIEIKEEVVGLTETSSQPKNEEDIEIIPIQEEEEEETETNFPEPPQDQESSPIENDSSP

Sequence of UniProt P11836 (P11836 whole entry): as the sequence (M4ZHZ6 entry or part of it limits assumed) above, with P25S, L31F, A51T, V157A, R217K, S226N, V227I, V239T counted along it

rituximab (antibody)
apoptosis of Ramos B-cells, annexin V/propidium iodide flow cytometry [1]: 60 % cell lysis | percent positive staining cells [2]: 21.5%
